The values that follow come from article PMC7580981 (2020).

Test [1] concerns the target two polymerase subunits (PA and PB1) of IBV polymerase (Pol2): PA-His, PB1 (influenza B virus). In words: SPR.
For test [2], the target named is IBV polymerase trimeric complex (Pol3): PA-His, PB1, PB2 (influenza B virus). In words: SPR. Background: Surface plasmon resonance follows binding to a sensor surface in real time, without labels.

Where only a bound is given, the exact number is not on record here.

B1: human ANP32A, purified (GST cleaved) (natural protein)
chain: MEMGRRIHLELRNRTPSDVKELVLDNSRSNEGKLEGLTDEFEELEFLSTINVGLTSIANLPKLNKLKKLELSDNRVSGGLEVLAEKCPNLTHLNLSGNKIKDLSTIEPLKKLENLKSLDLFNCEVTNLNDYRENVFKLLPQLTYLDGYDRDDKEAPDSDAEGYVEGLDDEEEDEDEEEYDEDAQVVEDEEDEDEEEEGEEEDVSGEEEEDEEGYNDGEVDDEEDEEELGEEERGQKRKREPEDEGEDDD
For the molecule B1, in test [1], the Kd (in general, the constant that tells how readily two partners part at equilibrium) is > 1000 µM.

B2: human ANP32A C terminal truncated (huANP32A_165T), purified (GST cleaved) (domain or fragment)
chain: MEMGRRIHLELRNRTPSDVKELVLDNSRSNEGKLEGLTDEFEELEFLSTINVGLTSIANLPKLNKLKKLELSDNRVSGGLEVLAEKCPNLTHLNLSGNKIKDLSTIEPLKKLENLKSLDLFNCEVTNLNDYRENVFKLLPQLTYLDGYDRDDKEAPDSDAEGYVE
In the case of B2, the Kd in test [2] was > 1000 µM.
